Ends that are not written are not given here.
B1: SPLUNC1: human SPLUNC1 (SEQ ID NO:1), 256 amino acid secreted PLUNC family protein; rSPLUNC1 is the purified V5/6His-tagged recombinant form (protein, listed as Homo sapiens)
chain: MFQTGGLIVFYGLLAQTMAQFGGLPVPLDQTLPLNVNPALPLSPTGLAGSLTNALSNGLLSGGLLGILENLPLLDILKPGGGTSGGLLGGLLGKVTSVIPGLNNIIDIKVTDPQLLELGLVQSPDGHRLYVTIPLGIKLQVNTPLVGASLLRLAVKLDITAEILAVRDKQERIHLVLGDCTHSPGSLQISLLDGLGPLPIQGLLDSLTGILNKVLPELVQGNVCPLVNEVLRGLDITLVHDIVNMLIHGLQFVIKV
modifications: V5/6His tag in recombinant form
notes: rSPLUNC1 is the purified V5/6His-tagged recombinant form

Legend:
[1] = target: T1, αENaC-eGFP and βENaC-mCherry (Homo sapiens, UniProt P37088+P51168); assay: Acceptor-photobleaching FRET between fluorescently tagged ENaC subunits; format: cell-based; settings: one hour of exposure
T1 construct: expressed in transfected cells
T1 sequence (P37088 whole entry): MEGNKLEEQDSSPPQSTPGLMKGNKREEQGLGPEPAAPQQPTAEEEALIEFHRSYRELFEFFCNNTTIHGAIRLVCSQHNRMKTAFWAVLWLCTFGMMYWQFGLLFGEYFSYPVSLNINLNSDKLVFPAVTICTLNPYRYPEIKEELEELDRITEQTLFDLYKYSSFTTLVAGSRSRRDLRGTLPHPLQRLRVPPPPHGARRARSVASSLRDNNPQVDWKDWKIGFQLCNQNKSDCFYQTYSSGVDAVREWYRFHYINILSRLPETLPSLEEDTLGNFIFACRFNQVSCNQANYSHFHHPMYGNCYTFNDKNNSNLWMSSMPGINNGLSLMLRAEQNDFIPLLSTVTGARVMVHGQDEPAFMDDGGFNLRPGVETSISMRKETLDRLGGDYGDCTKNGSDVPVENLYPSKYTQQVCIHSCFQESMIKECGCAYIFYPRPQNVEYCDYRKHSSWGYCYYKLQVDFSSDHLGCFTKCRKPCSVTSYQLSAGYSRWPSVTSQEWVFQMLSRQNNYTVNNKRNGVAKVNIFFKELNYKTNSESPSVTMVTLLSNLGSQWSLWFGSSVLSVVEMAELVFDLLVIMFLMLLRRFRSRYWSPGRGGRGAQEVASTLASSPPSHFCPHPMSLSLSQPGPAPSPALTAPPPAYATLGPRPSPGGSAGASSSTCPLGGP
T1 sequence (P51168 whole entry): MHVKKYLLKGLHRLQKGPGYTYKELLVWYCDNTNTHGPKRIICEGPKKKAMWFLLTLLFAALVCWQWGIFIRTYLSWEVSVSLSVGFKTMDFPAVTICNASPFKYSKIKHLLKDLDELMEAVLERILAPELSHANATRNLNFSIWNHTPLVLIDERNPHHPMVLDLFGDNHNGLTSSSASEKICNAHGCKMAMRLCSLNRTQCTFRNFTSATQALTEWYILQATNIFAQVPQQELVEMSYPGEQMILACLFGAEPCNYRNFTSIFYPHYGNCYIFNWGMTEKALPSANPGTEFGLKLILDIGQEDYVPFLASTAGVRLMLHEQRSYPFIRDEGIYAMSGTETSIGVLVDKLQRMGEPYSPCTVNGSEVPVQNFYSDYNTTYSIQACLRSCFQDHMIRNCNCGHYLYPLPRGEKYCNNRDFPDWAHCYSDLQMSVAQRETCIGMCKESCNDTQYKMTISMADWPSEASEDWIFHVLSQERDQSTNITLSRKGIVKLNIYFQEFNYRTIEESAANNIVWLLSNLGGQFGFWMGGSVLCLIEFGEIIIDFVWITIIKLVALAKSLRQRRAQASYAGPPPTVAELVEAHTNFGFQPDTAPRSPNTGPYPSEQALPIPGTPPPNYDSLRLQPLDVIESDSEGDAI
T1 sequence (P51170 whole entry partner): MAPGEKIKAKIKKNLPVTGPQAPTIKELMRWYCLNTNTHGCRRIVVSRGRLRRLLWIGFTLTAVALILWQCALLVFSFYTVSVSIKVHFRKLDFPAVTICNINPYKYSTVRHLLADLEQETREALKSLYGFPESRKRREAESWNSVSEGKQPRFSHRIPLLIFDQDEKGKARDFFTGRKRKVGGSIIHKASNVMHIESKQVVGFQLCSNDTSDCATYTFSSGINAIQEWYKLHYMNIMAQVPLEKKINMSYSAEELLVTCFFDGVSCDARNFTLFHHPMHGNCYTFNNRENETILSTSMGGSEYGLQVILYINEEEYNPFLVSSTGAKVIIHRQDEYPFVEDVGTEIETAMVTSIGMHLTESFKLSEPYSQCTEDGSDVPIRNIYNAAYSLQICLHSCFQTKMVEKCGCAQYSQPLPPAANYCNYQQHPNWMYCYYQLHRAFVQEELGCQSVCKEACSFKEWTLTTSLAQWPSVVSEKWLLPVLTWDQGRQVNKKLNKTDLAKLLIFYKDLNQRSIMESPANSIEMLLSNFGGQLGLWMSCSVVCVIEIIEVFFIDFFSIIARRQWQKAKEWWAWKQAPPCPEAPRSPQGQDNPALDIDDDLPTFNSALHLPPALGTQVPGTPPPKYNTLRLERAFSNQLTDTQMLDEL
From the text: Ai, cartoon of αENaC-eGFP and βENaC-mCherry under basal conditions (γENaC not shown). Aii We hypothesize that S18 binding to the extracellular loop of βENaC (1) induces a conformational change in ENaC which is reflected as altered intracellular FRET (2). This change may facilitate NEDD4-2-induced ubiquitination (3), leading to internalization of αβγENaC (4). […] In contrast, exposure to aprotinin had no effect. All n=8-10. C, Typical confocal images of HEK cells expressing αγENaC and βENaC-eGFP before and 1 h after 100 μM S18. Cell outlines are traced in white.
Since ENaC is regulated by NEDD4-2 binding to its C-termini, which leads to ubiquitination of its N-termini and internalization, we propose that S18 causes a conformational change in ENaC, leading to increased ubiquitination followed by internalization (FIG. 21A). As a first step towards understanding the mechanism of action of SPLUNC1, we performed FRET on fluorescently tagged ENaCs. […] Furthermore, βENaC-eGFP internalized upon S18 binding (FIG. 21C), consistent with our surface biotinylation data from oocytes.

αENaC = target: T2, αENaC (Rattus norvegicus, UniProt P37089+P37090); assay: Surface biotinylation of αENaC in Xenopus oocytes; format: cell-based; settings: coexpression with SPLUNC1
T2 construct: expressed in transfected cells; host or cells: Xenopus oocytes
T2 sequence (P37089 1-698): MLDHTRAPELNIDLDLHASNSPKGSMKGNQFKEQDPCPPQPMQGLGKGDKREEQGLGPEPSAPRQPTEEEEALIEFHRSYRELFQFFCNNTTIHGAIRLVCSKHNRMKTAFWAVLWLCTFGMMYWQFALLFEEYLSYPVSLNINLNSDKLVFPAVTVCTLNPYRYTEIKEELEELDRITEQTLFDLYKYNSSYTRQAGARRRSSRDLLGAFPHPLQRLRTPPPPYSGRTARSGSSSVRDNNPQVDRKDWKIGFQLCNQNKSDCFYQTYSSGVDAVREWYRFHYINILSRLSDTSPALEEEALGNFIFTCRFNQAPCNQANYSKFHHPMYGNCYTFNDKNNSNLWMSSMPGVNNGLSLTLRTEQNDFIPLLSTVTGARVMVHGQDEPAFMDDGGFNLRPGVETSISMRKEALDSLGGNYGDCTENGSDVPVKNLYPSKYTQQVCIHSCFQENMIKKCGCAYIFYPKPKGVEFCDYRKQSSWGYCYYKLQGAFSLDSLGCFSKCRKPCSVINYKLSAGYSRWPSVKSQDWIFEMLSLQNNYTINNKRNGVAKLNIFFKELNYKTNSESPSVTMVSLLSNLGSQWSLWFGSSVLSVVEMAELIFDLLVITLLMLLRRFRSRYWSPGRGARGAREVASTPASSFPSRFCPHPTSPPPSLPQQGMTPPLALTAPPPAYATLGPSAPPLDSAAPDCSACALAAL
T2 sequence (P37090 1-638): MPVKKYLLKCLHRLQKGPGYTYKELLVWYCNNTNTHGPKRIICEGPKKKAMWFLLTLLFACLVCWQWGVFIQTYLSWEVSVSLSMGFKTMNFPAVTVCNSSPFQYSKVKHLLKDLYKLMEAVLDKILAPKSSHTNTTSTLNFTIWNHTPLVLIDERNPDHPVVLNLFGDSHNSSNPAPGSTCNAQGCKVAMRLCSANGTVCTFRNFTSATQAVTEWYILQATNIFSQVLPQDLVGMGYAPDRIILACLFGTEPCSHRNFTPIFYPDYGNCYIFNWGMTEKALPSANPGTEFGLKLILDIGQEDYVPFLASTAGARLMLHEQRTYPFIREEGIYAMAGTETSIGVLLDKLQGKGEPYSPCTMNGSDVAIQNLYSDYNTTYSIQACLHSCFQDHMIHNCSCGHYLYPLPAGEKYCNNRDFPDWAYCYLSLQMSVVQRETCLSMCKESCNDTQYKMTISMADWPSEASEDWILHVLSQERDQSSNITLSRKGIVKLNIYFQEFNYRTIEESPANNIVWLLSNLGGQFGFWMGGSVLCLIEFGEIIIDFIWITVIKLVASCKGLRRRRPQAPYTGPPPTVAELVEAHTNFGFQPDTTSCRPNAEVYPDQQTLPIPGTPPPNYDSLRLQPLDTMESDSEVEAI
T2 sequence (P37091 1-650 partner): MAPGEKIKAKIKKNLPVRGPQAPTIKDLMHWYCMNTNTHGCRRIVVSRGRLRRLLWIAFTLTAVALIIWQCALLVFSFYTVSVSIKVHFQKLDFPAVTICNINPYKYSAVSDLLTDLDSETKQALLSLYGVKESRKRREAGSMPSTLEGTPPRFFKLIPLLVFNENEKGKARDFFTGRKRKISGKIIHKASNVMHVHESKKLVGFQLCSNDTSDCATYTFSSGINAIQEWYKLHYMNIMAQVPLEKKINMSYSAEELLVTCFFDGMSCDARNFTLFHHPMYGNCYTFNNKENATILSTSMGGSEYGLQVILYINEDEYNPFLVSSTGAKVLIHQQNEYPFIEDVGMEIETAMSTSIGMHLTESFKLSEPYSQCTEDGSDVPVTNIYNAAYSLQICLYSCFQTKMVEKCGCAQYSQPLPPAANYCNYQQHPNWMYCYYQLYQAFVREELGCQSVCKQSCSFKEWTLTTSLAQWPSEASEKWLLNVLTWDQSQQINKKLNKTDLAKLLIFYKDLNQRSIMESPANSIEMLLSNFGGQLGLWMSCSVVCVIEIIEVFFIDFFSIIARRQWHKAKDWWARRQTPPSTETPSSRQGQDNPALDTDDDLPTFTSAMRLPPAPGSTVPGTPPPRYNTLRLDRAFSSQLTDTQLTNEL
Experimental: The effect of SPLUNC1 on the number of ENaC channels in the plasma membrane was tested by expressing SPLUNC1 and αENaC in Xenopus oocytes. After surface biotinylation of αENaC, total lysate was prepared and lysate from 3-4 eggs was separated on a 10% gel.

trypsin = assay: Cell-free fluorogenic assay, trypsin cleavage of BGAR-MCA; format: biochemical; settings: 50 ng/ml rSPLUNC1 or 2 U/ml aprotinin; 1.0 or 0.3 U/ml trypsin
Experimental: For cell-free assays, reactions were carried out in 50 μl Ringer in a 96 well plate format with 100 μM BGAR-MCA. To measure endogenous protease activity in human bronchial epithelial cultures, 30 μl Ringer with 100 μM BGAR-MCA were placed directly onto the mucosal surfaces of human bronchial epithelial cultures grown on 12 mm T-clear inserts and the cultures were assayed in 12 well plates.

Molecule | FRET between αENaC-eGFP and βENaC-mCherry [1] | plasma membrane ENaC (surface biotinylation) (αENaC) | inhibition of trypsin cleavage of fluorogenic substrate BGAR-MCA (trypsin)
GGLPVPLDQTLPLNVNPA [S18] | significantly diminished | – | –
B1 | – | decreased | ~10%
